The record followed here is patent publication US20240067747A1 (SHANGHAI HUAOTA BIOPHARMACEUTICAL, published 2024).

To fix the notation:
T1: human CD73 on the cell surface of CHOK1-huCD73-3F4 cells (Huabo Biopharm) (human, UniProt P21589 27-549)
T1 sequence (looked up): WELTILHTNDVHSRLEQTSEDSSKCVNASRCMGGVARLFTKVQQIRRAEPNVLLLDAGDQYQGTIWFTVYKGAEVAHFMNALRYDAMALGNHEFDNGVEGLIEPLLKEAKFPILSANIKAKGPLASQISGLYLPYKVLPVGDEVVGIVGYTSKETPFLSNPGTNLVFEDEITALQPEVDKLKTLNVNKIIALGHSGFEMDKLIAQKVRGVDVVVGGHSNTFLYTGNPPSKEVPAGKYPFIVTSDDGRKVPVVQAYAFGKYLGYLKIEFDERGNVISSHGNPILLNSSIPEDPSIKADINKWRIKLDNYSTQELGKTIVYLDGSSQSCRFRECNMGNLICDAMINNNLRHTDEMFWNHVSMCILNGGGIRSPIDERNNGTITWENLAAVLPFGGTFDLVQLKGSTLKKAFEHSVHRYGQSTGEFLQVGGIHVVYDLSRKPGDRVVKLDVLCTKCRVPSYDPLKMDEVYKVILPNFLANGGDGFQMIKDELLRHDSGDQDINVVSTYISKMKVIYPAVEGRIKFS

T2: Trypsin inhibitor type 1-S from Glycine max (Sigma, T-2327) (Glycine max, UniProt P01070 25-205)
T2 construct: Non-target molecule, amine-coupled to a CM5 chip
T2 sequence (looked up): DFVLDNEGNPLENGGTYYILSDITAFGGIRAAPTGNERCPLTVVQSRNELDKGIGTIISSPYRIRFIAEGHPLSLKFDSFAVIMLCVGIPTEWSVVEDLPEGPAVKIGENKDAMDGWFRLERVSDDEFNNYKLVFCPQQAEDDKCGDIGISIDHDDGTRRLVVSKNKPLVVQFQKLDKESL

T3: Mouse CD73/NT5E protein (ACRO Biosystems, item No. CD3-M52H9) (mouse, UniProt Q61503 29-551)
T3 construct: Bought protein
T3 sequence (looked up): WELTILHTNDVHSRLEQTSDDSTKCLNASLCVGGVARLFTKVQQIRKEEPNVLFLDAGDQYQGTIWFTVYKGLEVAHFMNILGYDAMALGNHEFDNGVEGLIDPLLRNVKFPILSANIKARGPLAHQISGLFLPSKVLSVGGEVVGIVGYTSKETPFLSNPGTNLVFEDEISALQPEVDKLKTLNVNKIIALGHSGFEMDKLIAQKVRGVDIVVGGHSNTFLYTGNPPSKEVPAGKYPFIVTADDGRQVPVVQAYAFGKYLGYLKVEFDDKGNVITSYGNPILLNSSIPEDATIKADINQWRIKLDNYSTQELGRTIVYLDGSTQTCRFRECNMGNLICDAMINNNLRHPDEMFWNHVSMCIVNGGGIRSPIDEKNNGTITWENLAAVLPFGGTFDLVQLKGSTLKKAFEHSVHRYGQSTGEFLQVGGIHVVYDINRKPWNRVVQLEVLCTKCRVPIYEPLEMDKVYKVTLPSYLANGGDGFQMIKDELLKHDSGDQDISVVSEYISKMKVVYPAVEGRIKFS

B1: 900725 (humanized anti-CD73 antigen-binding protein) (antibody, V domains shown)
VH: QVQLVQSGAEVKKPGASVKLSCKASGYTFTSYWIHWVRQAPGQGLEWIGMIHPNSGSTYYNEKFKGRATLTVDKSTSTAYMELSSLRSEDTAVYYCARYYGSDYEWYFDVWGQGTTVTVSS
VL: DIQMTQSPSSMSASVGDRVTITCKASQNVRTAVVWYQQKPGKAPKALIYLASNRHTGVPDRFSGSGSGTDFTLTISSLQPEDFATYFCLQHWNYPYTFGQGTKLEIK
B2: 900728 (humanized anti-CD73 antigen-binding protein) (antibody, V domains shown)
VH: B1 VH with L20V, K65Q, A68V, L70M
VL: B1 VL with M11L, F87Y
B3: 900567 (human-mouse chimeric anti-CD73 antigen-binding protein expressed from 124A9 variable regions) (antibody, V domains shown)
VH: QVQLQQPGAELVKPGASVKLSCKASGYTFTSYWIHWVKQRPGQGLDWIGMIHPNSGSTYYNEKFKSKATLTVDKSSSTAYMQLSSLTSEDSAVYYCARYYGSDYEWYFDVWGTGTTVTVSS
VL: DIVMTQSQKFMSTSVGDRVSITCKASQNVRTAVVWYQQNPGQSPKALIYLASNRHTGVPDRFTGSGSGTDFTLTISNVHSEDLADYFCLQHWNYPYTFGGGTKLEIK
B4: 900727 (humanized anti-CD73 antigen-binding protein) (antibody, V domains shown)
VH: B1 VH with L20V, N61A, E62Q, K65Q, A68V, L70I
VL: B1 VL
B5: 900726 (humanized anti-CD73 antigen-binding protein) (antibody, V domains shown)
VH: B1 VH
VL: B1 VL with M11L, F87Y

Changes are numbered by the printed parent chain.

T4 sequence (P00698 19-147 limits assumed): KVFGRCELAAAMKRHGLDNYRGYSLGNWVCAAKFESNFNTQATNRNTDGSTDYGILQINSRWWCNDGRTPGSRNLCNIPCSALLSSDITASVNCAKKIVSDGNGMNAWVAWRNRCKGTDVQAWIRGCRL

For one experiment, the target named is T1, human CD73 on the cell surface of …. In words: cell-based or functional assay.
For B1, the “EC50 of inhibition of the enzyme activity of CD73 on cell membrane (AMP/ATP, CellTiter-Glo)” value (“EC50 of inhibition … (AMP/ATP, CellTiter-Glo)” below) worked out at 0.0697 µg/mL.

Regarding B2, the “EC50 of inhibition … (AMP/ATP, CellTiter-Glo)” value came out at 0.0467 µg/mL.

On to B3, for which the “EC50 of inhibition … (AMP/ATP, CellTiter-Glo)” value came out at 0.025 µg/mL.

Another experiment concerns the target T4, Lysozyme from chicken egg (Sigma, L3790) (chicken, UniProt P00698 19-147).
T4 construct: Non-target molecule, amine-coupled to a CM5 chip
In words: SPR, Biacore 8K, lysozyme immobilized on CM5 chip. The procedure: (§1) The non-specific adsorption effect of antigen-binding proteins and non-target molecules were determined by using the SPR method.
(§2) The series sensor chip CM5 (GE, #BR-1005-30) was equilibrated at room temperature for 20-30 min and then loaded into the Biacore 8K (GE) instrument. Lysozyme solution (Sigma, #L3790) from egg and trypsin inhibitor type 1-S (Sigma, #T-2327) from Glycine max were immobilized onto the CM5 chip using an amino coupling kit (GE, #BR-1000-50). The injection buffer was HBS-EP (1×) (GE, #BR-1006-69) and four equilibration cycles were set up. The polyclonal rabbit anti-lysozyme (ABcam, Ab391), anti-trypsin inhibitor antibodies (LifeSpan Biosciences, #LS-C76609), chimeric antibodies and humanized antibodies were diluted with equilibration buffer to 1000 nM, and the flow rate was set at 5 μL/min and injection channels 1, 2 and 3, Flow Cell 1 and 2 were selected. The association time was 10 min and the dissociation time was 10 min.
Background: SPR reads the build-up and loss of mass on a sensor chip optically.
Regarding B1, the binding result is given as “no binding (tested: 1000 nM antibody; 20 RU)”.

Consider B2, for which the binding result was “no binding (tested: 1000 nM antibody; 20 RU)”.

Consider B4, for which the binding result is on record as “no binding (tested: 1000 nM antibody; 20 RU)”.

Regarding B5, the binding result is on record as “no binding (tested: 1000 nM antibody; 20 RU)”.

On to B3, for which the binding result is given as “no binding (tested: 1000 nM antibody; 20 RU)”.

Another experiment deals with T2, Trypsin inhibitor type 1-S from Glycine …. Description: SPR, Biacore 8K, trypsin inhibitor immobilized on CM5 chip. The procedure: as §1, §2
Take B1: the binding result is on record as “no binding (tested: 1000 nM antibody; 20 RU)”.

With B2, the binding result was “no binding (tested: 1000 nM antibody; 20 RU)”.

Consider B4, for which the binding result was “no binding (tested: 1000 nM antibody; 20 RU)”.

Consider B5, for which the binding result is listed as “no binding (tested: 1000 nM antibody; 20 RU)”.

B3: the binding result is given as “no binding (tested: 1000 nM antibody; 20 RU)”.

Another experiment deals with T1, human CD73 on the cell surface of …. In words: flow cytometry on CHOK1-huCD73-3F4 cells, PE-goat anti-human-Fc. The method, then:
All antigen-binding proteins were diluted to 30 μg/ml with 1% BSA in PBS solution (1% BSA/PBS) and then 3-fold diluted for 11 gradients. The diluted antigen-binding proteins were added to a 96-well U-shaped plate at 20 μL per well; and a negative control (with 1% BSA/PBS added only) was set up at the same time. The suspension of cells (CHOK1-huCD73-3F4, Huabo Biopharm) expressing human CD73 during the logarithmic growth phase were centrifuged (1000 rpm×5 min) to discard the culture medium; and the cells were resuspended with 1% BSA/PBS until the density of viable cells was 1×10⁶/mL, and were added, at 20 μL (2×10⁴ cells) per well, to the 96-well U-shaped plate with the […] antigen-binding protein to react for 30 min at room temperature. After reaction, the 96-well U-shaped plate was resuspended with 1% BSA/PBS, centrifuged (300 g×3 min) to discard the supernatant, and washed once in such a way. PE-goat anti-human-Fc (Jackson ImmunoResearch, #109-115098) diluted at 1:200 was added to react for 15 min in the dark at room temperature. After reaction, the 96-well U-shaped plate was resuspended with 1% BSA/PBS, centrifuged (300 g×3 min) to discard the supernatant, washed three times in such a way, and finally resuspended with 100 μL of 1% BSA/PBS for each wall; and the fluorescence intensity of a PE channel was detected with a flow cytometer (BD, #Cantoll).
Background: A flow cytometer gives signals particle by particle.
In general, EC50 refers to the concentration giving half of the maximal effect. The low end stands for greater potency, the high end for weaker potency. Turning to B1, the EC50 turned out to be 0.106 µg/mL.

The molecule B2 yielded an EC50 of 0.105 µg/mL.

B5 returned an EC50 of 0.174 µg/mL.

With B3, the EC50 is 0.065 µg/mL.

Another experiment addresses T3, Mouse CD73/NT5E protein (ACRO …). Description: SPR, Biacore T200, antibody captured on protein A chip, CD73 as analyte. The method, then:
In the tests, the assay buffer HBS-EP+ (pH 7.4) and the protein A chip (manufacturer: GE, item No.: 29-1275-56) were used.
The temperatures of a sample chamber and a flow path were set at 25° C., and the protein A chip respectively captured antigen-binding proteins as ligands and immobilized at about 100 RU. […] After association for 120 s at a flow rate of 30 μL/min, dissociation was carried out for 600 s. Regeneration was then carried out for 60 s with 10 mM Glycine (pH 1.5) at a flow rate of 50 μL/min to implement multi-cycle kinetic detection. A 1:1 binding model was selected for fitting analysis in a Fit local mode to acquire the association rate constant (ka), dissociation rate constant (kd) and dissociation equilibrium rate constant (KD).
In the case of B1, the binding result was “no binding (tested: 50 nM (highest analyte concentration))”.

Turning to B2, the binding result is reported as “no binding (tested: 50 nM (highest analyte concentration))”.

Take B4: the binding result is listed as “no binding (tested: 50 nM (highest analyte concentration))”.

Regarding B5, the binding result is on record as “no binding (tested: 50 nM (highest analyte concentration))”.

As to B3, the binding result is “no binding (tested: 50 nM (highest analyte concentration))”.
